# Data: patent publication US20100068199A1 (RINAT NEUROSCIENCE, published 2010)
# Where a chain is given by its changes, count along the chain named.
# B1: anti-PCSK9 antagonist monoclonal antibody 5A10 (antibody, V domains shown)
# VH: QVQLQQPGAELVKPGASVKLSCKASGYTFTSYWMHWVKQRPGQGLEWIGEINPSNGRTNYNEKFKSKATLTVDKSSSTAYMQLSSLTSEDSAVYYCARERPLYAMDYWGQGTSVTVSS
# VL: DIVMTQSHKFMSTSVGDRVSITCKASQDVSTAVAWYQQKPGQSPKLLIYSASYRYTGVPDRFTGSGSGTDFTFTISSVQAEDLAVYYCQQRYSTPRTFGGGTKLEIKR
# notes: Murine full-length IgG from a hybridoma; Mouse precursor of L1L3; also called 5A10.B8 (subclone)
# B2: L1L3 humanized anti-PCSK9 monoclonal antibody (antibody, V domains shown)
# VH: QVQLVQSGAEVKKPGASVKVSCKASGYTFTSYYMHWVRQAPGQGLEWMGEISPFGGRTNYNEKFKSRVTMTRDTSTSTVYMELSSLRSEDTAVYYCARERPLYASDLWGQGTTVTVSS
# VL: DIQMTQSPSSLSASVGDRVTITCRASQGISSALAWYQQKPGKAPKLLIYSASYRYTGVPSRFSGSGSGTDFTFTISSLQPEDIATYYCQQRYSLWRTFGQGTKLEIKR
# B3: anti-PCSK9 antagonist monoclonal antibody 6F6 (antibody, V domains shown)
# VH: EVQLQQSGPELVKPGASVKISCKASGYTFTDYYMNWVKQSHGKSLEWIGDINPNNGGTSYNQKFKGKATLTVDKSSSTAYMELRSLTSEDSAVYYCAGGGIYYRYDRNYFDYWGQGTTLTVSS
# VL: DIQMTQTTSSLSASLGDRVTISCSASQGISNYLNWYQQKPDGTVKLLIYYTSSLHSGVPSRFSGSGSGTDYSLTISNLEPEDIATYYCQQYSKLPFTFGSGTKLEIK
# notes: Murine full-length IgG from a hybridoma; also called 6F6.G10.3 (subclone); ATCC PTA-8984
# B4: anti-PCSK9 antagonist monoclonal antibody 7D4 (antibody, V domains shown)
# VH: EVKLVESEGGLVQPGSSMKLSCTASGFTFSDYYMAWVRQVPEKGLEWVANINYDGSNTSYLDSLKSRFIISRDNAKNILYLQMSSLKSEDTATYYCAREKFAAMDYWGQGTSVTVSS
# VL: B1 VL with V15F, T31N, V33L, Q42H, Y49F, R91H, R96W
# notes: Murine full-length IgG from a hybridoma; also called 7D4.4 (subclone); ATCC PTA-8983
# B5: anti-PCSK9 antagonist monoclonal antibody 4A5 (antibody, V domains shown)
# VH: EVQLQQSGPELVKPGASVKISCKASGYTFTDYYMNWVKQSHGKSLEWIGDINPNNGGTTYNQKFKGKATLTVDKSYSTAYMELRSLTSEDSAVYYCARWLLFAYWGQGTLVTVSA
# VL: DIVMTQSQKFMSTSVGDRVSVTCKASQNVGTNVAWYQQKPGQSPKALIYSASYRYSGVPDRFTGSGSGTDFTLTISNVLSEDLAEYFCQQFYSYPYTFGGGTKLEIKR
# notes: Murine full-length IgG from a hybridoma; also called 4A5.G3 (subclone); ATCC PTA-8985
# Molecular target: T1, PCSK9
# T1 construct: neither names the species
# Test: not given
# T1 sequence (prodomain, as listed by the source limits assumed, chain 1 of 2): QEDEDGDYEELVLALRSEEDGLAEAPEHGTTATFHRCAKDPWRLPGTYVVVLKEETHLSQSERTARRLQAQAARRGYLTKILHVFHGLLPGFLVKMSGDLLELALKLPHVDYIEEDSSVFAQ
# T1 sequence (chain, as listed by the source limits assumed, chain 2 of 2): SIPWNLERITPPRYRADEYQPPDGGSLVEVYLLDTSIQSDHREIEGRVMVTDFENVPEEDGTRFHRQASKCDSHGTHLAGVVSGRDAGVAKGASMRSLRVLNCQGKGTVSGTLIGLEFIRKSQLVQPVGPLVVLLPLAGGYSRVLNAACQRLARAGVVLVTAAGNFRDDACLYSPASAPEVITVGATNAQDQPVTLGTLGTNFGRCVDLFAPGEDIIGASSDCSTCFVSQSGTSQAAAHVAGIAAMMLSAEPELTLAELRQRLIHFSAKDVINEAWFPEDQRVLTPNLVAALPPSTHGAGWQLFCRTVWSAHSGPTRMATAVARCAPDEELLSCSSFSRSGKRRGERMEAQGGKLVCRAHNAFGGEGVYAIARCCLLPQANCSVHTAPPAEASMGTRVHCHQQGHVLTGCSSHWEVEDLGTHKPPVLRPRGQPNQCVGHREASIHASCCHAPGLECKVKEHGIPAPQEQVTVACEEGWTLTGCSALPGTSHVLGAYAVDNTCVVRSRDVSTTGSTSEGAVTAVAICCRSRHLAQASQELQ
row,Kd [nM],Binder
1,1.1,B1

# Molecular target: T1, PCSK9
# Test: not given
# Remark: another data set of the same source
row,Kd [nM],Binder
1,0.007,B2

# Molecular target: T2, recombinant human PCSK9 (human, UniProt Q8NBP7 31-692)
# T2 construct: also called hPCSK9
# Test: Biacore; format not described
# T2 sequence (Q8NBP7 31-692 limits assumed): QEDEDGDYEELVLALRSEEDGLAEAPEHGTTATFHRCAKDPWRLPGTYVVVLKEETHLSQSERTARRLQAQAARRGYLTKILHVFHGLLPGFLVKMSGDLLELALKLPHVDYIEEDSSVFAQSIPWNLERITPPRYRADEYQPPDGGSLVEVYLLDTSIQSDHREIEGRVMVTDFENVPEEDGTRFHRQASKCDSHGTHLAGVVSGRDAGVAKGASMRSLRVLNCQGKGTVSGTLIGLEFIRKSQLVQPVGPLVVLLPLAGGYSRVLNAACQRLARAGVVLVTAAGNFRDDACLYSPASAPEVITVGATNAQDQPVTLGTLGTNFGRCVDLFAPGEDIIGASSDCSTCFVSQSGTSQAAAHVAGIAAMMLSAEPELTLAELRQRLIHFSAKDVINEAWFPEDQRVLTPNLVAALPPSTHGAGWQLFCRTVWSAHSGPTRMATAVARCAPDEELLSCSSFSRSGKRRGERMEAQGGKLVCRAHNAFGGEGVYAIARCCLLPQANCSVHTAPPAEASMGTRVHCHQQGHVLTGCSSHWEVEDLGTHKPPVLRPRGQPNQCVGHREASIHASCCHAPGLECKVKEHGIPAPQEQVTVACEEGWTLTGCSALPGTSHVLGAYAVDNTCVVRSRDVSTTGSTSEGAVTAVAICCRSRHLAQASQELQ
row,Kd [nM],Binder
1,0.1,B2

# Molecular target: T3, recombinant mouse PCSK9 (mouse, UniProt Q80W65 35-694)
# T3 construct: also called mPCSK9; murine PCSK9
# Test: Biacore; format not described
# T3 sequence (Q80W65 other isoform, or with tags, fused parts or gaps limits assumed): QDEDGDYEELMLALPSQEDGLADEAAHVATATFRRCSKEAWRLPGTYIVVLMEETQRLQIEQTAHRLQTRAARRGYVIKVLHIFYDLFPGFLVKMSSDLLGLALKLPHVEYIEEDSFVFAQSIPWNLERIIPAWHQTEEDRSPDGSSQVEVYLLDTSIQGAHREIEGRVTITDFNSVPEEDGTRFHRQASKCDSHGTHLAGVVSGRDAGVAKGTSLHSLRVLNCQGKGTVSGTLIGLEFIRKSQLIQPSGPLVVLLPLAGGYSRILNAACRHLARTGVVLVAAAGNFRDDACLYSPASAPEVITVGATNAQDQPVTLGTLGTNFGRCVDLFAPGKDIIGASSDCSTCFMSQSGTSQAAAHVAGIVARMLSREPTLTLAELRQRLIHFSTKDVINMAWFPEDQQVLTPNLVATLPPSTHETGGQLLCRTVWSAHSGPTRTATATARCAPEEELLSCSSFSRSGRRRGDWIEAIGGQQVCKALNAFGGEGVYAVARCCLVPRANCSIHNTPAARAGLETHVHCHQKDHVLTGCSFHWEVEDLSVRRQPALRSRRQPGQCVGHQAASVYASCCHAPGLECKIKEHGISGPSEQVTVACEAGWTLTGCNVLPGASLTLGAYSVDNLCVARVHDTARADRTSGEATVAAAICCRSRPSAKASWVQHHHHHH
row,Kd [nM],Binder
1,0.2,B2

# Molecular target: rat PCSK9 in plasma (rat, UniProt P59996 31-691)
# Test: antibody incubated with plasma, complexes purified and probed by Western blot
# Procedure: To determine the species specificity of the anti-PCSK9 antibodies, antibodies were incubated with plasma from different species and the resultant complexes were purified and probed by an independent anti PCSK9 antibody on Western blots. […] Id.
# Sequence of rat PCSK9 in plasma (P59996 31-691 limits assumed): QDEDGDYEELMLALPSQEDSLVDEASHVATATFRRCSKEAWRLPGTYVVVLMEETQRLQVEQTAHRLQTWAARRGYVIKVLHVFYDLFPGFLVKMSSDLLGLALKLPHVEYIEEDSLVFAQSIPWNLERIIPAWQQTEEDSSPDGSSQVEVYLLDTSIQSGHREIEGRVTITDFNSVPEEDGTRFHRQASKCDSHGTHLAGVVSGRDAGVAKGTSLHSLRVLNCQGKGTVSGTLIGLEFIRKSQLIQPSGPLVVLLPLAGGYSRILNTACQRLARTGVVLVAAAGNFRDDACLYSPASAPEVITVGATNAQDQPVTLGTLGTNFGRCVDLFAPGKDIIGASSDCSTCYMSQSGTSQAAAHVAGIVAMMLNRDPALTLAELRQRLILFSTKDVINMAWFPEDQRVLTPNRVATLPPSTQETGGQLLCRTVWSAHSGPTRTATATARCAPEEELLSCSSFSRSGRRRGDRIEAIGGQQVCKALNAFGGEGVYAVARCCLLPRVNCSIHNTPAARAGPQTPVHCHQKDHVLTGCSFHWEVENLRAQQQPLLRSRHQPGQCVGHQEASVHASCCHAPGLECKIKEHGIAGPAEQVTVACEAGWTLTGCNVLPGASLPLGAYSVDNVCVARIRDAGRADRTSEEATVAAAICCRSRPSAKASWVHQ
row,binding result,Binder
1,binds,B3
2,binds,B4
3,binds,B1
4,binds,B5

# Molecular target: T2, recombinant human PCSK9
# Test: SPR (Biacore 3000); full-length IgG captured on anti-mouse IgG, PCSK9 injected
# Procedure: (§1) The affinities of PCSK9 antibodies to PCSK9 were measured on a surface plasmon resonance Biacore 3000 biosensor equipped with a research-grade sensor chip using HBS-EP running buffer (Biacore AB, Uppsala, Sweden—now GE Healthcare). Rabbit polyclonal anti-Ms IgGs were amine-coupled at saturating levels onto the chip using a standard N-hydroxysuccinimide/ethyldimethylaminopropyl carbodiimide (NHS/EDC) chemistry. The buffer was switched to HBS-EP+1 mg/mL BSA+1 mg/mL CM-dextran.
# (§2) Dissociation was monitored for 5 min. The chip was regenerated after the last injection of each titration with two 30 sec pulses of 100 mM phosphoric acid. Buffer cycles provided blanks for double-referencing the data, which were then fit globally to a simple binding model using Biaevaluation software v.4.1. Affinities were deduced from the quotient of the kinetic rate constants (KD=koff/kₒₙ).
Kd [nM],koff [s⁻¹],kon [M⁻¹ s⁻¹],Binder
6.4,0.000584,91500,B3
6.4,0.000794,125000,B4
1,8.55e-05,84700,B1
2.8,0.000189,66600,B5

# Molecular target: T3, recombinant mouse PCSK9
# Test: as above
# Procedure: as §1, §2
Kd [nM],koff [s⁻¹],kon [M⁻¹ s⁻¹],Binder
17.7,0.00197,111000,B3
1.3,,,B4
3.9,0.000489,127000,B1
5.1,0.00072,141000,B5

# Molecular target: T2, recombinant human PCSK9
# Test: competition ELISA; antibody blocks biotinylated PCSK9 binding to immobilized recombinant LDLR extracellular domain
row,IC50 [nM],Binder
1,1.5,B3
2,1.5,B4
3,0.4,B1
4,0.4,B5

# Molecular target: T3, recombinant mouse PCSK9
# Test: as above
row,IC50 [nM],Binder
1,10,B3
2,1,B4
3,3,B1
4,3,B5

# Molecular target: T2, recombinant human PCSK9
# Test: ELISA, blocking: biotinylated human PCSK9 (0.4nM) binding to immobilized human LDLR extracellular domain, pH7.5
# Procedure: (§3) ELISA plates (Corning Mixisorb) were coated with a solution of 1 μg/ml recombinant LDLR extracellular domain (R&D Systems) in each well at 4 C overnight, blocked with 2% BSA+PBS for 2 hrs at room temperature, and then washed 5 times with washing buffer (1×PBS+0.05% Tween-20). Wells were incubated with 50 μl of indicated concentrations of biotinylated PCSK9 protein for 1 hr RT. LDLR-PCSK9 binding can be stabilized by adding 50 μl of 4% FDH+4% sucrose+PBS solution and incubate for 5 min. Wells were washed 5 times with washing buffer, incubated with 1:2000 dilution of HRP conjugated Strepavidin (Invitrogen) for 1 hr at RT, washed 5 times with washing buffer. TMB substrate was added to the wells, the solution was incubated 20 to 30 min at RT, and the reaction was terminated using 1 M phosphoric acid. Signals were read at 450 nm.
row,IC50 (read off the curve) [nM],Binder
1,~2,B3
2,~1,B4
3,~0.3,B1
4,~0.2,B5

# Molecular target: T3, recombinant mouse PCSK9
# Test: ELISA, blocking: biotinylated mouse PCSK9 (0.8nM) binding to immobilized human LDLR extracellular domain, pH7.5
# Procedure: as §3
row,IC50 (read off the curve) [nM],Binder
1,~10,B3
2,~0.9,B4
3,~3,B1
4,~3,B5

# Molecular target: T2, recombinant human PCSK9
# Test: TR-FRET in solution at neutral pH: biotinylated human PCSK9 (30 nM) binding to Europium labeled LDLR extracellular domain (10 nM) blocked by the mAb
row,IC50 [nM],Binder
1,6.5,B3
2,5.4,B4
3,6,B1
4,7.1,B5
